Measured values from patent US11944665B2, “Methods and compositions for modulating lymphatic vessels in the central nervous system” (University of Virginia Patent Foundation, priority 2016, dated 2024).
Entries after “also recorded” stand apart in the source; their conditions may differ.

B1: VEGF-c: VEGFR3 agonist polypeptide, lymphangiogenic growth factor, SEQ ID NO: 1; recombinant protein injected into CSF (FIG. 2e used rhVEGF-c Cys156Ser) (protein, listed as Homo sapiens)
chain: MHLLGFFSVACSLLAAALLPGPREAPAAAAAFESGLDLSDAEPDAGEATAYASKDLEEQLRSVSSVDELMTVLYPEYWKMYKCQLRKGGWQHNREQANLNSRTEETIKFAAAHYNTEILKSIDNEWRKTQCMPREVCIDVGKEFGVATNTFFKPPCVSVYRCGGCCNSEGLQCMNTSTSYLSKTLFEITVPLSQGPKPVTISFANHTSCRCMSKLDVYRQVHSIIRRSLPATLPQCQAANKTCPTNYMWNNHICRCLAQEDFMFSSDAGDDSTDGFHDICGPNKELDEETCQCVCRAGLRPASCGPHKELDRNSCQCVCKNKLFPSQCGANREFDENTCQCVCKRTCPRNQPLNPGKCACECTESPQKCLLKGKKFHHQTCSCYRRPCTNRQKACEPGFSYSEEVCRCVPSYWKRPQMS
B2: VEGF-C156S: recombinant human VEGF-C156S, applied in a gel matrix on a thinned skull (protein, UniProt P49767 112-227, looked up, variant C156S)
Vascular endothelial growth …: AHYNTEILKSIDNEWRKTQCMPREVCIDVGKEFGVATNTFFKPPSVSVYRCGGCCNSEGLQCMNTSTSYLSKTLFEITVPLSQGPKPVTISFANHTSCRCMSKLDVYRQVHSIIRR

Experiments:
meningeal lymphatic = experiment: Lymphatic drainage of fluorescent microbeads into deep cervical lymph nodes (FIG. 15); type: in vivo, mice; conditions: VEGF-c injected into CSF, 5 days after injection, vs PBS
Experimental: FIGS. 15A-E are a series of diagrams, microscope images, and graphs showing modulation of the meningeal lymphatic affects drainage into the cervical lymph nodes. […] Fluorescent microbeads (0.5 μm in diameter-5 μl) were injected in the lateral ventricle of mice at a rate of 0.5 μl/min. 30 min later, the deep cervical lymph nodes were harvested, sliced and immunostained for the presence of fluorescent beads. FIG. 15B is a pair of representative sections of deep cervical lymph nodes from sham operated (left) and ligated (right) mice immunostained for lymphatic vasculature (Lyve-1), fluorescent microbeads and Lyve-1. Note the accumulation of microbeads in the subcapsular space of the lymph nodes in the sham operated mice (left). […] N=3-4 mice per group, Student-t-test. d. Quantification of the coverage of dCLN section by fluorescent beads in PBS and Visudyne injected mice (24 h after ablation). N=3-5 mice per group, *p<0.05, Student-t-test. e. Quantification of the coverage of dCLN section by fluorescent beads in PBS and VEGF-c injected mice (5 days after VEGF-c injection). N=4 mice per group.

[1] = tested on: meningeal lymphatic vessels; experiment: i.c.v. (cisterna magna) injection of rhVEGF-c, meningeal lymphatic vessel diameter (FIG. 2D-E); type: in vivo, mice; conditions: single injection of recombinant protein into the CSF (i.c.v.)
Description: FIGS. 2A-H are a series of microscope images and graphs showing Molecular and structural characterization of meningeal lymphatic vessels. FIG. 2A is a series of representative images of Prox1 expression in the nuclei of Lyve-1^+ vessels in the dural sinuses of Prox1^tdT mice (scale bars, 10p m)(in order of left-to-right, the four panels show Lyve-1, Prox1-tdTOMATO, DAPI, and overlay). FIG. 2B is a series of representative images of podoplanin and Lyve-1 labelling on dural sinuses (scale bar, 40 μm) (in order of left-to-right, the three panels show Lyve-1. Podoplanin, and overlay). FIG. 2C is a series of representative images of VEGFR3 and Lyve-1 staining on dural sinuses (scale bar, 20 μm)(in order of left-to-right, the three panels show VEGFR3. Lyve-1, and overlay). For FIGS. 2D and 2E Adult mice were injected i.c.v. (cisterna magna) with 4 μg of rhVEGF-c (Cys156Ser) or with PBS. Meninges were harvested 7 and 14 days after the injection. […] FIG. 2E is a graph showing quantification of the meningeal lymphatic vessel diameter (mean±s.e.m.; n=4 mice each group, *P<0.05, two-way ANOVA with Bonferroni post hoc test). FIGS. 2F and 2G are a series of representative images of smooth muscle cells (alpha-smooth muscle actin, α-SMA) and Lyve-1 labelling on dural sinuses (scale bars, 50 μm (g) or 20 μm(g)). […]

[2] = tested on: meningeal lymphatic vessels; experiment: Transcranial gel+VEGF-C156S in old mice (Example 4); type: in vivo, C57BL/6 mice; conditions: one month transcranial treatment, 2 h after OVA-A647 ICM
Experimental: […] of a gel matrix alone (vehicle) or containing 200 ng of recombinant human VEGF-C156S was applied every two weeks on top of a thinned skull of old C57BL/6 mice. One month after the initial treatment, OVA-A647 was injected ICM and mice were transcardially perfused with saline 2 h post injection. […] OVA-A647 alone is shown in the inset in the upper right corner of each of FIGS. 27A and 27B, and LYVE-1 alone is shown in the inset in the lower right corner of each of FIGS. 27A and 27B.

Molecule	lymphatic drainage (efficacy) after VEGF-c (meningeal lymphatic)	lymphatic drainage (efficacy) after VEGF-c (meningeal lymphatic; listed as recombinant VEGF-c)	diameter of meningeal lymphatic vessels [1]	diameter of meningeal lymphatic vessels ([1]; listed as recombinant VEGF-c)	OVA-A647 influx from the CSF into the parenchyma [2]	drainage of OVA-A647 into the dcLNs [2]
B1	improves the drainage	increase drainage efficacy	increase in diameter; also recorded: increase the diameters of meningeal lymphatic vessels	sufficient to increase diameter	improved CSF influx into brain	–
B2	–	–	–	–	–	increased
